Source: paper PMC5961234

B1: T4WT12W (structured_DNA)
DNA: GGTTGGTGTGGTTGG
modifications: T4 and T12 = W, 5-(indolyl-3-acetyl-3-amino-1-propenyl)-2'-deoxyuridine (written T)
B2: T4W (structured_DNA)
DNA: GGTTGGTGTGGTTGG
modifications: T4 = W, 5-(indolyl-3-acetyl-3-amino-1-propenyl)-2'-deoxyuridine (written T)
B3: T7W (structured_DNA)
DNA: GGTTGGTGTGGTTGG
modifications: T7 = W, 5-(indolyl-3-acetyl-3-amino-1-propenyl)-2'-deoxyuridine (written T)
B4: T3W (structured_DNA)
DNA: GGTTGGTGTGGTTGG
modifications: T3 = W, 5-(indolyl-3-acetyl-3-amino-1-propenyl)-2'-deoxyuridine (written T)
B5: T4K (structured_DNA)
DNA: GGTTGGTGTGGTTGG
modifications: T4 = K, 5-(methyl-3-acetyl-3-amino-1-propenyl)-2'-deoxyuridine (written T)
B6: TBA (structured_DNA)
DNA: GGTTGGTGTGGTTGG
modifications: none
B7: T12W (structured_DNA)
DNA: GGTTGGTGTGGTTGG
modifications: T12 = W, 5-(indolyl-3-acetyl-3-amino-1-propenyl)-2'-deoxyuridine (written T)

These binders were tested against human alpha-thrombin (Homo sapiens, UniProt P00734;P00734 328-363;364-622) (assay: BLI).
In the case of B1, the Kd is reported as 0.31 nM.
With B2 the Kd was 1 nM.
With B3 the Kd was 1.7 nM.
With B4 the Kd was 3.9 nM.
B5 was tested, and the Kd was 0.39 nM.
For B6, the Kd was 2.8 nM.
B7 showed a Kd of 1.3 nM.
